Two molecules from patent US9371393B2, “Class I anti-CEA antibodies and uses thereof” (Immunomedics, Inc., priority 2009, dated 2016) can be followed below.

Some results are limits rather than exact numbers.

The subject of assay [1] is ZR75-30 binding to fibronectin. The assay can be described thus: Adhesion to extracellular matrix proteins assay, ZR75-30. Format: cell-based, human. The procedure:
Adhesion to extracellular matrix proteins assay—The assay was done using the CYTOMATRIX™ screening kit from CHEMICON® (Kit #ECM205, Temecula, Calif.). The kit contains 96-well plates with strips coated with fibronectin, vitronectin, laminin, collagen-I, or collagen-IV. Subconfluent cell cultures were used for these studies. Cells (1×10^6 cells/mol) were seeded onto coated substrate and incubated at 37° C. for 1 hour in a CO2 incubator in PBS containing Ca^2+/Mg^2+ (200 μL per well). Adherent cells were fixed and stained. The plate was washed to remove unadhered cells and stained with 100 μL per well of MTS (Cell Titer Aq 96, PROMEGA®, Madison, Wis.) for 5 minutes at room temperature. Excess stain was removed with three PBS washes. Solubilization buffer [100 μL of a 50:50 mixture of 0.1 mol/L NaH2PO4 (pH 4.5) and 50% ethanol] was added to each well. Relative attachment was determined using absorbance readings (A540 nm-A570 nm).

Assay [2] addresses T1, NCA-90 (HeLa-KNC6/S44) (Homo sapiens, UniProt P40199).
T1 construct: expressed in transfected cells; host or cells: HeLa (HeLa-KNC6/S44)
T1 sequence (P40199 35-320): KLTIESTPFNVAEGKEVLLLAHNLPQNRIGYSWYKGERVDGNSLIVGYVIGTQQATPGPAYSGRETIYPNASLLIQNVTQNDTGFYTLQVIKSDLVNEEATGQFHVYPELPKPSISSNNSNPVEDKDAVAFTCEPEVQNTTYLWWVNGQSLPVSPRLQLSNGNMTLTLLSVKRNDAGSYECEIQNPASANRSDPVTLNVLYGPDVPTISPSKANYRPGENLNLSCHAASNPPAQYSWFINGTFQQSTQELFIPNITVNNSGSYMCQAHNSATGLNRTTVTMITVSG
Put plainly: Indirect flow cytometry, HeLa-KNC6/S44. Conditions: antibodies at 1/50 dilution of 1 mg/ml stocks. Format: binding. The procedure: The reactivity of antibodies was tested by flow cytometry with a Becton-Dickinson FACSCAN®. The biotinylated second antibody was directed against mouse IgG and was detected by a streptavidin/phycoerythrin conjugate. Tests were carried out with antibodies at 1/50 dilution of 1 mg/ml stocks.
The antibodies MN-3 and MN-15 were tested for recognition of HeLa cells transfected with cDNA coding for CEA (HeLa-CEA2), NCA-90 (HeLa-KNC6/S44) and NCA-95 (HeLa-CGM6/1). As a negative control, HeLa cells transfected with the plasmid pSV2-Neo (control HeLa cells, HeLa-NeoA) were used. In addition to the antibodies MN-3 and MN-15, three control antibodies were included: […]

Assay [3] has as its system ZR75-30 cells. Put plainly: Collagen-based invasion assay, ZR75-30. It counts as cell-based, human. Particulars: 10% FBS chemoattractant, 72-hour incubation. The procedure:
Collagen-based invasion assay—The assay was done using CHEMICON® Kit (#ECM551, MILLIPORE®, Billerica, Mass.). Tumor cells at 80% confluence and were serum-starved for 18 to 24 hours before the assay was used. Cells were harvested with 5 mol of 2 mmol/L EDTA/PBS per 100-mm dish and incubated at 37° C. for 5 to 15 minutes. Cells were collected into 10 to 20 mol of quenching medium (serum-free DMEM containing 5% BSA) to inactivate trypsin/EDTA from the harvesting buffer. Cells were pelleted, resuspended in quenching medium (1×10^6 cells/mol), and appropriate antibody Fabs were added to individual cell aliquots. Cell invasion potential was determined as follows. Baseline invasion and invasion in the presence of a chemoattractant (10% FBS) were measured after a 72-hour incubation period at 37° C. in a 5% CO2 incubator. The bottom side of the collagen-coated polycarbonate membrane insert of the invasion chamber was placed in 400 μL of cell stain for 20 minutes at room temperature and washed. The dye was extracted and transferred into a 96-well microtiter plate for colorimetric measurements (A560 nm).

Assay [4] deals with GW-39 human colonic carcinoma. Put plainly: GW-39 intrapulmonary micrometastasis model (GW-39iv), survival. Format: in vivo, nude mice. Conditions: cells pretreated with Fab′ 10 μg/mol, 100 μg i.v. 1 day after implantation; untreated 42 days. The procedure: FIG. 7 illustrates an exemplary in vivo micrometastasis study. Top, immunohistochemistry of GW-39 tumor sections stained with a nonspecific antibody (left), MN-14 anti-CEACAM5 (middle), and MN-15 anti-CEACAM6 (right) and photographed at 100×. Bottom, survival of nude mice implanted with 30 μL of a 10% suspension of GW-39 human colonic cancer cells. Mice were implanted with cells that were […] for 30 minutes with MN-3-, MN-15-, or hMN-14-Fab′ (10 μg/mol). Mice also received a single 100 μg dose of the same Fab′ 1 day after cell implantation.
In vivo therapy studies—Female athymic nude mice (6 to 8 weeks old) were purchased from TACONIC® (Germantown, N.Y.). Therapy studies were done using our CEACAM5+/CEACAM6+GW-39 intrapulmonary micrometastasis model, GW-39iv (Sharkey et al., J Natl Cancer Inst 1991, 83:627-32; Blumenthal et al., Cancer Res 1992, 52:6036-44). The GW-39 human colonic carcinoma has been maintained as a serially transplanted signet-ring cell cancer line since 1966 (Goldenberg et al., Transplantation 1966, 4:760-4). […] Body weight was monitored weekly and animal survival recorded. Results were analyzed by the Kaplan-Meier estimated survival curves, and significance was determined with the log-rank comparison of survival curves. Median survival time for each treatment group also was determined. […]

B1: MN-15: murine Class I anti-CEA MAb, IgG1 kappa, binds A1B1 domain of CEACAM5 and CEACAM6 (antibody, V domains shown)
VL: DIQLTQSPAIMSASPGEKVTMTCSASSRVSYIHWYQQKSGTSPKRWIYGTSTLASGVPARFSGSGSGTSYSLTISSMEAEDAATYYCQQWSYNPPTFGAGTKLELKR
VH: EVRLVESGGGLVQGPGSLRLSCAASGFALTDYYMSWVRQSPGKTLEWLGFIANKANGHTTDYSPSVKGRFTISRDNSQTILYLQMNTLRTEDSATYYCARDMGIRWNFDVWGQGTTVTVSS
Take B1: in assay [1], the “effect on binding to fibronectin” value was “not affecting the binding”. The “binding to NCA-90” value in assay [2] is on record as “binds to all three antigens”.

B2: MN-15 Fab′: monovalent Fab′ fragment of murine MN-15 (antibody, V domains shown)
VL: DIQLTQSPAIMSASPGEKVTMTCSASSRVSYIHWYQQKSGTSPKRWIYGTSTLASGVPARFSGSGSGTSYSLTISSMEAEDAATYYCQQWSYNPPTFGAGTKLELKR
VH: EVRLVESGGGLVQGPGSLRLSCAASGFALTDYYMSWVRQSPGKTLEWLGFIANKANGHTTDYSPSVKGRFTISRDNSQTILYLQMNTLRTEDSATYYCARDMGIRWNFDVWGQGTTVTVSS
Take B2: the “reduction in cell invasion” value in assay [3] is listed as 49%. The median survival time in assay [4] is given as over 77 days.
